Assay results from patent US12545899B2, “Luciferase enzymes for use with thermostable luciferins in bioluminescent assays” (Promega Corporation, priority 2018, dated 2026).
Substitutions are numbered along the chain they refer to. Names and notes keep the numbering of the source.

B1: C2157D2: SEQ ID NO: 74; H244W+T344A+I396K+S193A+N228D+L305F+S306P+I109V+K107N+T289S (protein)
chain: MADKNILYGPEPFYPLEDGTAGEQMFDALSRYAAIPGCIALTNAHTKENVLYEEFLKLSCRLAESFKKYGLKQNDTIAVCSENSLQFFLPVIASLYLGIIVAPVNDKYIERELIHSLGIVKPRIVFCSKNTFQKVLNVKSKLKSIETIIILDLNEDLGGYQCLNNFISQNSDSNLDVKKFKPYSFNRDDQVASIMFSSGTTGLPKGVMLTHKNIVARFSIAKDPTFGNAINPTSAILTVIPFHHGFGMMTTLGYFTCGFRVVLMHTFEEKLFLQSLQDYKVESTLLVPTLMAFLAKSALVEKYDLSHLKEIASGGAPLSKEIGEMVKKRFKLNFVRQGYGLTETTSAVLITPKGDAKPGSTGKIVPLHAVKVVDPTTGKILGPNEPGELYFKGPMKMKGYYNNEEATKAIIDNDGWLRSGDIAYYDNDGHFYIVDRLKSLIKYKGYQVAPAEIEGILLQHPYIVDAGVTGIPDEAAGELPAAGVVVQTGKYLNEQIVQDYVASQVSTAKWLRGGVKFLDEIPKGSTGKIDRKVLRQMLEKHTNGHHHHHHHH
B2: C8523E12: SEQ ID NO: 94; H244W+T344A+I396K+S193A+N228D+L305F+S306P+I109V+C38R+F55I+A316W+T342S+V348I (protein)
chain: B1 chain with I109V, K121Q, S193A, N228D, H244W, V261A, V287I, L305F, S306P, T344A
B3: C9644H7: SEQ ID NO: 97; H244W+T344A+I396K+S193A+N228D+L305F+S306P+I109V+C38R+A316W+T342S+V348I (protein)
chain: MADKNILYGPEPFYPLEDGTAGEQMFDALSRYAAIPGRIALTNAHTKENVLYEEFLKLSCRLAESFKKYGLKQNDTIAVCSENSLQFFLPVIASLYLGIIVAPVNDKYVERELIHSLGIVKPRIVFCSKNTFQKVLNVKSKLKSIETIIILDLNEDLGGYQCLNNFISQNSDSNLDVKKFKPYSFNRDDQVAAIMFSSGTTGLPNGVMLTHKNIVARFSIAKDPTFGDAINPTSAILTVIPFHWGFGMMTTLGYFTCGFRVVLMHTFEEKLFLQSLQDYKVESTLLVPTLMAFLAKSALVEKYDFPHLKEIASGGWPLSKEIGEMVKKRFKLNFVRQGYGLSEATSAILITPKGDAKPGSTGKIVPLHAVKVVDPTTGKILGPNEPGELYFKGPMKMKGYYNNEEATKAIIDNDGWLRSGDIAYYDNDGHFYIVDRLKSLIKYKGYQVAPAEIEGILLQHPYIVDAGVTGIPDEAAGELPAAGVVVQTGKYLNEQIVQDYVASQVSTAKWLRGGVKFLDEIPKGSTGKIDRKVLRQMLEKHTNGHHHHHHHH
B4: C9649G7: SEQ ID NO: 98; H244W+T344A+I396K+S193A+N228D+L305F+S306P+I109V+C38R+F55I+K121Q+A316W+Y339M+T344I+V348I (protein)
chain: B3 chain with F55I, N205K
B5: C9679H10: SEQ ID NO: 99; H244W+T344A+I396K+S193A+N228D+L305F+S306P+I109V+A316W+T344I (protein)
chain: B3 chain with F55I, N205K
B6: C9673G4: SEQ ID NO: 96; H244W+T344A+I396K+S193A+N228D+L305F+S306P+I109V+C38R+F55I+A316W+T342S+V348I+I396I (protein)
chain: B3 chain with F55I, N205K, A344T, K396I
B7: C9671D10: SEQ ID NO: 100; H244W+T344A+I396K+S193A+N228D+L305F+S306P+I109V+C38R+F55I+Y108F+A316W+Y339M+T344I (protein)
chain: B3 chain with F55I, N205K
B8: C9715F9: SEQ ID NO: 95; H244W+T344A+1396K+S193A+N228D+L305F+S306P+I109V+C38R+A316W+T342S+V348I+K205N (protein)
chain: B3 chain with N205K

Experiments:
[1] = Kinetic analysis of ATG-3707 variants with CS0333; type: biochemical
Description: Additionally, Table 5 (below) includes kinetic analysis of the ATG-3707 variants identified above. Reagent compositions included CS0333 serially diluted 10-fold from 1 mM to 10 fM in reaction buffer with 2 mM ATP. […] Reactions were incubated at 25° C. for 3 min, and luminescence was read and then normalized to ATG-3707 activity tested in parallel. […] Since C2157D2 was selected for improved brightness in CellTiterGlo® buffer over ATG-3707, it still had beneficial properties.

[2] = Brightness of additional luciferase enzyme variants with CS0333; type: biochemical; settings: for luminescence CS0333 BG / luminescence CS0333 DR / Fold improvement over ATG3707, CS0333 BG / Fold improvement over ATG3707, CS0333 DR: Table 7B
Description: (§1) Additional luciferase enzyme variants were generated and evaluated for their stability and activity. To evaluate the additional luciferase enzyme variants, 0.005 mg/ml luciferase enzyme variant was mixed with 1 mM ATP+1 mM substrate in either Bright-Glo™ (BG) or Detection Reagent (DR) buffers. […] (Table 7A is colored according to their relative luminescence values within each column across a red to green color spectrum with the lowest values colored red and the highest values colored green.)

[3] = Brightness of additional luciferase enzyme variants with CS0280; type: biochemical; settings: for luminescence CS0280 BG / luminescence CS0280 DR / Fold improvement over ATG3707, CS0280 BG / Fold improvement over ATG3707, CS0280 DR: Table 7B
Description: as §1

[4] = Differential scanning fluorimetry (DSF) analysis; type: physicochemical; design: key to DSF Tm: melting temperature in °C (heated 30-95 °C at 1 °C/min); settings: for DSF Tm (° C.): Table 7B
Description: To conduct the experiment, Sypro Orange (5000×) was diluted in water to 3× and combined with enzymes stored in 50 mM HEPES pH 7.5, 100 mM NaCl, 2 mM EDTA to a final concentration of 5×. Fluorescence was read at 60 second intervals as the reactions were heated at 1° C. per minute from 30-95° C. The change in fluorescence at each minute was calculated and plotted for each temperature in the range.
The luciferase enzyme variants generated were also evaluated using DSF analysis as shown in the representative results provided in Tables 7A and 7B above. To conduct the experiments, Sypro Orange (5000×) was diluted in water to 3× and combined with enzymes stored in 20 mM HEPES pH 7.5, 200 mM NaCl, 1 mM EDTA to a final concentration of 5×. Fluorescence was read at 60 second intervals as the reactions were heated at 1° C. per minute from 30-95° C. The change in fluorescence at each minute was calculated and plotted for each temperature in the range.

[5] = 1 mM CS0333, Detection Reagent buffer
[6] = 1 mM CS0280, Detection Reagent buffer

| Molecule | Km ([1]; BrightGlo) | Vmax (RLU) ([1]; BrightGlo) | Km ([1]; Detection Reagent) | Vmax (RLU) ([1]; Detection Reagent) | Fold-improvement over ATG3707, CS0333 BG ([2]; Table 7A, 1 mM CS0333, Bright-Glo buffer) | Fold-improvement over ATG3707, CS0333 DR ([2]; Table 7A, 1 mM CS0333, Detection Reagent buffer) | Fold-improvement over ATG3707, CS0280 BG ([3]; Table 7A, 1 mM CS0280, Bright-Glo buffer) | Fold-improvement over ATG3707, CS0280 DR ([3]; Table 7A, 1 mM CS0280, Detection Reagent buffer) | DSF Tm ([4]; Table 7A) | luminescence CS0333 BG ([2]; 1 mM CS0333, Bright-Glo buffer) | luminescence CS0333 DR [2, 5] | Fold improvement over ATG3707, CS0333 BG ([2]; Bright-Glo buffer) | Fold improvement over ATG3707, CS0333 DR ([2]; Detection Reagent buffer) | luminescence CS0280 BG ([3]; 1 mM CS0280, Bright-Glo buffer) | luminescence CS0280 DR [3, 6] | Fold improvement over ATG3707, CS0280 BG ([3]; Bright-Glo buffer) | Fold improvement over ATG3707, CS0280 DR ([3]; Detection Reagent buffer) | DSF Tm (° C.) [4] |
| --- | --- | --- | --- | --- | --- | --- | --- | --- | --- | --- | --- | --- | --- | --- | --- | --- | --- | --- |
| B1 | 6.31 µM | 3,053,170 RLU | 97.1 µM | 3,677,773 RLU | 1.16 | 1.52 | 2.36 | 3.08 | 63 | – | – | – | – | – | – | – | – | – |
| B2 | – | – | – | – | – | – | – | – | – | 20,331,700 | 15,418,100 | 3.82 | 3.62 | 1,996,020 | 213,031 | 2.52 | 7.29 | 67 °C |
| B3 | – | – | – | – | – | – | – | – | – | 15,784,700 | 11,887,900 | 2.97 | 2.79 | 1,642,120 | 83,763 | 2.07 | 2.87 | 59 °C |
| B4 | – | – | – | – | – | – | – | – | – | 13,322,000 | 11,733,600 | 2.50 | 2.75 | 7,501,350 | 891,010 | 9.46 | 30.48 | 51 °C |
| B5 | – | – | – | – | – | – | – | – | – | 12,508,600 | 11,647,400 | 2.35 | 2.73 | 7,349,470 | 984,923 | 9.26 | 33.69 | 65 °C |
| B6 | – | – | – | – | – | – | – | – | – | 18,508,700 | 12,268,900 | 3.48 | 2.88 | 1,298,420 | 104,671 | 1.64 | 3.58 | 71 °C |
| B7 | – | – | – | – | – | – | – | – | – | 8,464,030 | 7,772,660 | 1.59 | 1.82 | 11,877,500 | 1,439,510 | 14.97 | 49.24 | 65 °C |
| B8 | – | – | – | – | – | – | – | – | – | 18,891,000 | 14,484,700 | 3.55 | 3.40 | 2,040,340 | 245,081 | 2.57 | 8.38 | 68 °C |
